The subject of one assay is monocytes. Description: IL-10 secretion from monocytes, NAT_29 sequence variants, co-stimulated with LPS (AlphaLISA). The format is cell-based, human. As to conditions: 1 μM; LPS 100 ng/ml; 24 h; monocytes from six donors. The protocol: In order to investigate the impact of different sequence variations of NAT_29, monocytes from six donors were obtained as described in Example 3 and stimulated with 1 μM NAT_29 polypeptide (SEQ ID NO: 1) or a sequence variant thereof containing eight mutations (NAT_38; SEQ ID NO: 9), co-stimulated with 100 ng/ml LPS (NAT_38 comparison) from E. coli O111: B4 (InvivoGen, tlrl-eblps) and placed in humidified CO2 incubator at 5% CO2/37° C. for 24 h. IL-10 secretion was measured at 24 hours by AlphaLISA® on cell supernatants according to the supplier's protocol and read on an Envision plate reader (Perkin Elmer).
For comparison with NAT_29 (SEQ ID NO: 1), a polypeptide differing from the NAT_29 sequence by eight (8) amino acid positions was chosen (NAT_38; SEQ ID NO: 9). Namely, in SEQ ID NO: 9 • (i) 110 of SEQ ID NO: 1 is deleted, • (ii) D13 in SEQ ID NO: 1 is substituted with P (D13P), • (iii) a Q is added between R14 and G15 of SEQ ID NO: 1, • (iv) T16 in SEQ ID NO: 1 is substituted with Y (T16Y), • (v) K17 in SEQ ID NO: 1 is substituted with Q (K17Q), • (vi) S22 in SEQ ID NO: 1 is substituted with G (S22G), • (vii) an I is added between F25 and Y26 of SEQ ID NO: 1, and • (viii) P28 of SEQ ID NO: 1 is deleted.
(Alpha assays give light when donor and acceptor beads are brought close together.)

The test system of a further assay is human PBMCs. Description: Dose-response of purified microbiota proteins, IL-10 secretion from total PBMCs (AlphaLISA). The format is cell-based. As to conditions: 24 hours. The protocol:
Before testing, the proteins were purified. In view thereof, CD14 depletion of PBMCs was not required, since the background induced by the residual contaminants present in the purified proteins is very low. Therefore, the cellular assays of Example 2 to characterize the purified proteins were performed on total PBMCs.
The selected proteins, were tested at concentrations of 0.5, 0.25, 0.1 and 0.025 μM (final concentration) on PBMCs. Cells were seeded in 384 well plates at 72,000 cells/well in a final volume of […] and stimulated with either the purified proteins (10% vol/vol) or the relative controls (positive and negative) for 24 hours in a humidified 5% CO2 atmosphere at 37° C. Samples were tested in duplicate on at least two different PBMCs donors. All the dilutions were made in PBS.
Secretion of IL-10 was measured by AlphaLISA and compared to those of PBS (negative control) and PHA at 10 μg/ml (positive control), essentially as described above.

Assay [1] relates to CD14 depleted human peripheral blood mononuclear cells (PBMCs). Description: IL-10 screening of microbiota protein library on CD14-depleted PBMCs (AlphaLISA). It is filed as cell-based. As to conditions: second round of cell-free synthesis, 72 hours. As for the experimental part:
IL-10 screening of the microbiota protein library was performed on CD14 depleted human peripheral blood mononuclear cells (PBMCs). This cellular model was chosen to reduce the background due to cell wall components and other bacterial contaminants possibly present in the lysate of the Cell Free synthesis kit on the synthesised (but not purified) proteins.
PBMCs were isolated from buffy coats as follows: 80 ml PBS were added to 50 ml blood; 4 SepMate™-50 IVD tubes (Stemcell Technologies, Vancouver, Canada) were filled with 15 mL of Ficoll® (Ficoll® Paque Plus; Sigma-Aldrich, St. Louis, USA) per donor, then 30 ml of PBS-diluted blood were gently added. Samples were centrifuged for 20 min at 1200 g at room temperature and washed three times with PBS. To lyse the red blood cells, pellets were resuspended in Red Blood Cells Lysis buffer 1X (Miltenyi Biotec, Bergisch Gladbach, Germany) and incubated for 10 min at room temperature. Cells were then washed with MACS buffer and counted.
PBMC depletion was performed using the CD14 Microbeads kit (Miltenyi Biotec, Bergisch Gladbach, Germany) according to the supplier's protocol. […]
IL-10 secretion was measured by AlphaLISA® (IL10 (human) AlphaLISA Detection Kit; PerkinElmer, Waltham MA, USA) on the undiluted supernatants according to the supplier's protocol. Results were expressed as AlphaLISA® signal (Counts). […]

Experimental findings from patent US20240327471A1, “IL-10 INDUCING POLYPEPTIDES AND USES THEREOF” (ENTEROME S.A., priority 2021, published 2024) are described below.

With KKGSRSCFFYLPRQGYQKGSRGCFFIYL (NAT_38), in the assay with monocytes, the “IL-10 secretagogue activity compared with NAT_29” value is reported as “IL-10 secretagogue activity was maintained”.

B1: ID3166: microbiota protein, 121 amino acids, 14 kDa, SEQ ID NO: 2 (protein)
chain: AFLFTSTGVPKKAAEAAFFLYLNKGTKKGSRSCFFIYLDRGTKKGSRSCFFYLPRQGYQKGSRGCFFIYLDRGTKKGSRGCFFIYLDCEKRAGNVCIRKCRGRYLHKKTPRRYRNAEATCS
modifications: ID3166
As for B1, the “IL-10 secretion from PBMCs compared with PHA (positive control)” value in the assay with human PBMCs (0.5, 0.25, 0.1 and 0.025 μM, PHA at 10 μg/ml) is on record as “even more effective”. For the same molecule, the “IL-10 secretion from PBMCs at the lowest dose tested” value in the assay on human PBMCs (lowest dose 0.025 μM) is on record as “very high effectivity even at the lowest dose tested”. Also, the “IL-10 secretion from human PBMCs” value in assay [1] is recorded as “able to stimulate IL-10 secretion from human PBMCs”.
